Our source for the Kd values is patent US20050074855A1 (Regeneron, published 2005).

The assay addresses T1, human IL-6 (human, UniProt P05231 30-212).
T1 construct: Soluble analyte injected at 1.25, 2.5 and 5 nM in the BIAcore assay; also called hIL-6
Briefly: SPR (BIAcore 2000), fusion captured by anti-human Fc, hIL-6 injected. The protocol: Affinity Measurements. The affinity of the various scFv-scFv-Fc fusion proteins for human IL-6 was measured using a BIAcore 2000. […] Kinetic analysis using BIAevaluation software was performed to obtain the association and dissociation rate constants.

T1 sequence (P05231 30-212 limits assumed): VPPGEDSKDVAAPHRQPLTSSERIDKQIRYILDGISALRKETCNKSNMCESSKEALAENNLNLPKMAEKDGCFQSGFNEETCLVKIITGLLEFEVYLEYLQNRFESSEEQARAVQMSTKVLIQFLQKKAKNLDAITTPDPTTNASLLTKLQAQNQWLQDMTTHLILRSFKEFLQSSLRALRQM

B1: 8F10.8F10 ScFv-ScFv-Fc (Fc fusion)
chain: QVQLQQSGAELAKPGASVKMSCKASGYTFTTYWMHWIKQRPGQGLEWIGYINPSTGYSEFNQKFNDKATLTADRSSSTAYMQLNSLTSEDSAVYYCARDAYYGNYEDYWGQGTTLTVSSAGGGGSGGGGSGGGGSSIVMTQTPKFLLVSAGDRVTITCKASQSVSYDVAWYQQKPGQSPKLLIYYESNRYSGVPDRFTGSGNGTDFTFTISTVQAEDLAVYFCQQVYTSPYTFGGGTKLEIKRGGGGSGGGGSGGGGSQVQLQQSGAELAKPGASVKMSCKASGYTFTTYWMHWIKQRPGQGLEWIGYINPSTGYSEFNQKFNDKATLTADRSSSTAYMQLNSLTSEDSAVYYCARDAYYGNYEDYWGQGTTLTVSSAGGGGSGGGGSGGGGSSIVMTQTPKFLLVSAGDRVTITCKASQSVSYDVAWYQQKPGQSPKLLIYYESNRYSGVPDRFTGSGNGTDFTFTISTVQAEDLAVYFCQQVYTSPYTFGGGTKLEIKR
notes: Monospecific tandem scFv-Fc; not shown: Fc domain of human IgG1
The term Kd denotes the constant that tells how readily two partners part at equilibrium. In turn, B1 gave a Kd of 0.296 nM.

B2: 8F10 ScFv-Fc (Fc fusion)
chain: QVQLQQSGAELAKPGASVKMSCKASGYTFTTYWMHWIKQRPGQGLEWIGYINPSTGYSEFNQKFNDKATLTADRSSSTAYMQLNSLTSEDSAVYYCARDAYYGNYEDYWGQGTTLTVSSAGGGGSGGGGSGGGGSSIVMTQTPKFLLVSAGDRVTITCKASQSVSYDVAWYQQKPGQSPKLLIYYESNRYSGVPDRFTGSGNGTDFTFTISTVQAEDLAVYFCQQVYTSPYTFGGGTKLEIKR
notes: how it was built is not described; not shown: Fc domain of human IgG1
Consider B2, for which the Kd is 0.43 nM.
